The source of these data is patent publication US20160280788A1, “USE OF ANTIBODIES AGAINST ICAM-1 IN THE TREATMENT OF PATIENTS WITH RELAPSED CANCER” (BioInvent International AB, priority 2010, published 2016).

Data set [1] concerns F4/80 positive host effector cells in ARH-77 xenograft tissue. Conditions: compared to control IgG, untreated and rituximab treated mice.
Description: (FIG. 7A) ARH-77 cells were injected subcutaneously into the left flank of SCID mice (n=8 per group). […] Statistical significance was calculated relative to control antibody treatment using Kruskal-Wallis Test (Nonparametric ANOVA) with Dunn's Multiple Comparisons Test. Statistical significance was considered for *p<0.05, **p<0.01, and ***p<0.001.
In data set [2] the test system is PBMC. The data set can be described thus: PBMC cytokine release. The format is cell-based.
The test system of the next data set is OPM-2 myeloma cells. The data set can be described thus: Subcutaneous myeloma xenograft, OPM-2 (ICAM-1 negative). It counts as in vivo, scid mice. As to conditions: 2 mg/kg twice weekly i.p.; ICAM-1 negative cell line. As to the method: (§1) Antibody treatment with 2 mg/kg BI-505 or control IgG1 was started at Day 1 and was continued on a twice-weekly intraperitoneal dosing regimen. Mice were sacrificed when tumor sizes reached the ethical limit.

Data set [3] deals with PBMC. The data set can be described thus: PBMC / T cell proliferation. It counts as cell-based.
The subject of the next data set is ARH-77 tumors. As to the kind of experiment: Subcutaneous scid/ARH-77 xenograft, established (palpable tumor) model. Conditions: IgG B11 even at 0.2 mg/kg (100-fold lower dose than rituximab).
For the next data set, the system named is EJM myeloma cells. As to the kind of experiment: Subcutaneous myeloma xenograft, EJM. It counts as in vivo, scid mice. Conditions: 2 mg/kg twice weekly i.p.; vs control IgG1. As to the method:
as §1

In a further data set the test system is RPMI-8226 myeloma cells. The data set can be described thus: Subcutaneous myeloma xenograft, RPMI-8226. As to conditions: 2 mg/kg twice weekly i.p.; vs control IgG1. It counts as in vivo, scid mice. As to the method:
as §1

Data set [4] concerns B lymphoma cell line (CL-01). As to the kind of experiment: ADCC of tumor cells with human NK effector cells. The format is cell-based. As to conditions: human Natural Killer effector cells. From the text: Buffy coats from human donors (ordered through Blodcentralen, Lund) were used to isolate peripheral blood mononuclear cells (PBMCs), and subsequently NK cells. Briefly, peripheral blood components were separated using Ficoll Paque PLUS (Amersham Biosciences, Sweden) in LeucoSep tubes (Greiner Bio-One). The PBMC fraction was removed and thoroughly washed in ice-cold DPBS (Invitrogen), before magnetic labeling and separation of the NK cell population using positive or negative NK cell isolation kits and MACS LS columns (Miltenyi Biotec). The purity of the obtained NK cell fractions was analyzed using flow cytometry, after staining with α-CD56 antibodies (BD Biosciences). Target cells were harvested, and incubated in medium with or without the respective antibodies (2 μg/mL) for 60 min on ice. Cells were thereafter washed and resuspended in cold medium before dispension into FACS tubes. Subsequently, isolated NK cells were diluted in ADCC medium and dispensed together with the respective antibody-coated target cells at varying effector/target cell ratios (40:1, 20:1, 5:1 and 1:1). All experiments were performed in triplicates. After completed incubation ToPo-Pro-3 dye and counting beads (Invitrogen) were added and cells were analyzed for membrane permeabilization using flow cytometry.

The target of another data set is recombinant human ICAM-1 (Homo sapiens, UniProt P05362). As to the kind of experiment: ELISA on recombinant human ICAM-1, ICAM-2, ICAM-3. The format is binding. Conditions: vs ICAM-2, ICAM-3. The protocol:
Antibody-specific bands were excised and subjected to tryptic digestion and analyzed by MALDI-TOF. The single band precipitated by BI-505 was identified as ICAM-1. The established identity of ICAM-1 was confirmed by blocking studies by up to 50-fold molar excess soluble recombinant ICAM-1 or VCAM. The MFI of BI-505 to PC-3 cells was determined by flow cytometry. Dashed line represents the negative control antibody and gray solid histogram represents the MFI of BI-505 with no preblocking. BI-505 was preblocked by recombinant VCAM or ICAM-1. […] Anti-ICAM-2 and α-ICAM-3 antibodies were used as positive controls to detect ICAM-2 and ICAM-3 respectively.

Data set [5] in a line: Mouse serum antibody levels by ELISA at end of xenograft experiment. It counts as in vivo. Conditions: mouse serum at end of experimentation. As to the method: We next performed a dose-titration experiment to establish IgG B11 in vivo potency and the minimal dose achieving maximal anti-tumor activity, using the scid/ARH-77 model system. […] Mouse serum antibody trough concentrations were determined by ELISA at the end of experimentation. Trough antibody concentrations were then plotted against percent of maximal in vivo anti-tumour activity, and against percent of maximal ICAM-1 receptor occupancy and tumour cell PCD at corresponding antibody concentrations in vitro (FIGS. 3C, 3D, 3E, 3F and 3G). Strikingly, a near perfect correlation between antibody concentration and in vitro tumour cell receptor occupancy, in vitro tumor cell PCD, and in vivo anti-tumour activity was observed, consistent with ICAM-1 dependent direct cell cytotoxicity underlying in vivo anti-tumour activity.

For another data set, the system named is Daudi lymphoma cells. The data set can be described thus: Programmed cell death (PCD) assay, Daudi. It counts as cell-based, human. As to the method: Target cells were seeded in 96-well culture plates at a density of 2×10^6 cells/mL culture medium. […] The cells were then incubated for 16 hours at 37° C. in a humidified atmosphere of 5% CO2. The cells were harvested and stained for Annexin V-488/Propidium Iodide (Invitrogen, Sweden) and analysed using flow cytometer (FACS Calibur, BD Bioscience).

The target in a further data set is T1, human FcγRIIIa (Homo sapiens, UniProt P08637).
T1 construct: made in house; host or cells: HEK293E (transient)
As to the kind of experiment: Biacore binding of BI-505 isotype variants to human FcγRIIIa. As to the method: His-tagged human FcγRIIIa or mouse FcγRIV were expressed transient in adherent HEK293E cells, purified using Ni-NTA chromatography and characterized using SDS-PAGE and/or Biacore. Surface plasmon resonance (SPR) measurements were perfomed using a Biacore 3000 instrument. Goat α-human-F(ab)′2 F(ab)′2 fragment (Jackson laboratories) was immobilised with a CM-5 chip using a standard amine coupling protocol. IgG1 B11, Iga4 B11, or 297Q B11 were diluted to 15 and 60 μg/mL respectively and added to the surface at […] for 3 min. His tagged human FcγRIIIa or mouse FcγRIV were pre-incubated with an α-HIS antibody (R&D Systems) at a 2:1 molar ratio before addition to the chip surface, […], 1 min. After each cycle the surface was regenerated twice with glycine buffer pH 1.7.

Another data set relates to peripheral blood B cells. As to the kind of experiment: PCD in normal B cells. The format is cell-based. As to conditions: resting or activated cells. The protocol: Target cells were seeded in 96-well culture plates at a density of 2×10^6 cells/mL culture medium. Titrated concentrations of IgG1 B11 or different negative and positive control antibodies were added to the cells, in the absence or presence of anti-human Fab fragment (Jackson ImmunoResearch) for cross-linking. The cells were then incubated for 16 hours at 37° C. in a humidified atmosphere of 5% CO2. The cells were harvested and stained for Annexin V-488/Propidium Iodide (Invitrogen, Sweden) and analysed using flow cytometer (FACS Calibur, BD Bioscience).

A further data set has as its system NCI-H929 myeloma cells. As to the kind of experiment: Subcutaneous myeloma xenograft, NCI-H929. It counts as in vivo, scid mice. As to conditions: 2 mg/kg twice weekly i.p.; vs control IgG1. The protocol:
as §1

The mark [6] stands for this setting: added in solution, resting or lipopolysaccharide pre-stimulated PBMCs.
Where [7] appears, read: immobilised by either protocol, or in solution with or without cross-linking reagent.

“Also recorded” adds a separate entry of the source. Read-outs that look alike come from different tables or passages of the source.

T1 sequence (P08637 17-254): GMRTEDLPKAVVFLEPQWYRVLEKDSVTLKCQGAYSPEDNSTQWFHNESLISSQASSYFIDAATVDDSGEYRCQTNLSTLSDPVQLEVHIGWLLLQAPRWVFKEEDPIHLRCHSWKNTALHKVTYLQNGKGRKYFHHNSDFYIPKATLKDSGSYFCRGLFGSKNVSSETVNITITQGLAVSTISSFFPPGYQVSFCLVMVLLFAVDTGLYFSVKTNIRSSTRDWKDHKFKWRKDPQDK
Sequence of recombinant human ICAM-1 (P05362 28-532): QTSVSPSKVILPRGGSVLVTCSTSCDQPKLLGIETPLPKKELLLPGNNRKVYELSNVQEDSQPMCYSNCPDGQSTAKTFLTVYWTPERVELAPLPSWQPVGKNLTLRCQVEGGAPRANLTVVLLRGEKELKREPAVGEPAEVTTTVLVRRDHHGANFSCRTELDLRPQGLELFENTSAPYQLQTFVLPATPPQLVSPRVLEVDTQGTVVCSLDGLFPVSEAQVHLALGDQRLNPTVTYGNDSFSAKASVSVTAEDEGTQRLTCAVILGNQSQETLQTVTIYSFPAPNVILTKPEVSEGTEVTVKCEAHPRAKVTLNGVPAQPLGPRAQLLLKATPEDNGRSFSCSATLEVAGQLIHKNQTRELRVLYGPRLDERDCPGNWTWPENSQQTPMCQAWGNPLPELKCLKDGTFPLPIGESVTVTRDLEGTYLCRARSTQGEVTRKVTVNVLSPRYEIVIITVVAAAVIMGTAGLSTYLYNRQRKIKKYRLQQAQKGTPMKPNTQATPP
Description for ARH-77 tumors: Mice were anaesthetized with a mixture of sevofluran and oxygen prior to myeloma cell inoculation and 1-5×10^6 myeloma cells were then subcutaneously injected in a volume of 100 μl into the left flank. Treatment with antibodies by intraperitonial (i.p.) injections was started either the day after cell inoculation (prophylactic model) or when tumors reached a size of approximately 100 mm^3 (established model). Antibodies were administrated in PBS in a total volume of 200 μL. Treatment with PBS or isotype control was used as control. Tumors were measured with a digital calliper and the tumor volumes were calculated according to formula: width^2×length×0.52. Animals were sacrificed when the tumor sizes reached the ethical limit of 1.5 cm. Surviving mice were sacrificed after a maximum of 5 months. Blood samples collected from the vena cava were centrifuged at 2500 g for 15 min to obtain serum and the samples were stored at −20° C. Tumors were removed for immunohistochemistry, snap frozen and were kept at −85° C.

B1: IgG B11: fully human ICAM-1 antibody isolated from the n-CoDeR library; VH/VL sequences in FIG. 15 (SEQ ID NOs 8, 10) (antibody, V domains shown)
VH: EVQLLESGGGLVQPGGSLRLSCAASGFTFSNAWMSWVRQAPGKGLEWVAFIWYDGSNKYYADSVKGRFTISRDNSKNTLYLQMNSLRAEDTAVYYCARYSGWYFDYWGQGTLVTVSS
VL: QSVLTQPPSASGTPGQRVTISCTGSSSNIGAGYDVHWYQQLPGTAPKLLIYDNNNRPSGVPDRFSGSKSGTSASLAISGLRSEDEADYYCQSYDSSLSAWLFGGGTKLTVLG
modifications: B11 VH region; B11 VL region
Regarding B1, the “influx of F4/80+ host effector cells (macrophage infiltration) in tumor tissue” value in data set [1] was “massive influx”; in data set [1] (listed as BI-505), “significantly increased”. Further, the cytokine release entry in the data set with PBMC [2] (setting [6]) was “did not induce or enhance cytokine release”. The PBMC cytokine release entry in the data set on PBMC [2] (setting [7]) is “induce PBMC cytokine release”. Besides, the tumor growth entry in the data set on OPM-2 myeloma cells is reported as “no effect on tumor growth; also recorded: did not affect tumor growth”; in the data set on ARH-77 tumors, “significantly prevented tumor growth”. Further, the cell proliferation entry in the data set with PBMC [3] (setting [6]) and in the data set on PBMC [3] (setting [7]) was “did not induce cell proliferation” throughout. The animal survival entry in the data set on ARH-77 tumors is on record as “prolonged animal survival”. The “reduction of myeloma tumor growth” value with EJM myeloma cells came out at 98%; with RPMI-8226 myeloma cells, 96%; in the data set on NCI-H929 myeloma cells, 99%. Besides, in data set [4], the “ADCC of target tumor cells” value was “mediated ADCC”. In the data set with recombinant human ICAM-1, the “specificity for ICAM-1” value is reported as “high specificity”. Besides, the “In vivo IgG Levels (serum antibody titers)” value in data set [5] (dose 0.02 mg/kg) was determined as 0.06 ± 0.02 µg/mL; in data set [5] (dose 0.2 mg/kg) it was 1.2 ± 0.4 µg/mL; in [5] (dose 2 mg/kg), 20 ± 2.9 µg/mL. Besides, the PCD induction entry in the data set with Daudi lymphoma cells (antibody immobilised by either of two coating protocols) was “induced programmed cell death”; in the data set on Daudi lymphoma cells (titrated antibody with cross-linking, 16 hours), “dose dependent PCD-induction”. Further, the “binding to human FcγRIIIa” value with human FcγRIIIa is on record as “bound to human FcγRIIIa”. In addition, the “PCD induction in normal B cells” value in the data set with peripheral blood B cells is “did not, however, induce PCD”.
